Laboratory results taken from paper PMC3988567.

Biological target: ZnF-UBP domain from USP5 (human) (UniProt P45974)
Assay: ITC

Sequence of ZnF-UBP domain from USP5 (human) (P45974 163-291): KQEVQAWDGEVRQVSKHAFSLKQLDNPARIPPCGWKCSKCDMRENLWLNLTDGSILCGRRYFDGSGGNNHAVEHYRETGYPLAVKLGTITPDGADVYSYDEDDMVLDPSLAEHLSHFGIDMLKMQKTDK

ubiquitin (from UniProt P0CG48 1-76) (natural protein)
stoichiometry N: 1
